In article PMC7430590 (bioRxiv, 2020):

Key:
[1] = biological target: SARS-CoV-2 S protein-RBD-mFc (SARS-CoV-2, early reference sequence …, UniProt P0DTC2); assay: SPR
[2] = biological target: receptor binding domain (RBD; residues 319–541) of the SARS-CoV-2 spike (S) protein (SARS-CoV-2, UniProt P0DTC2); assay: crystal structure
[3] = biological target: Fc fusion protein of the RBD-SD1 region of SARS-CoV (SARS-CoV, strain not named, UniProt P59594); assay: ELISA

B1: CV07–209 (antibody, V domains shown)
VH: QVQLVESGGGLVKPGGSLRLSCAASGFTFSDYYMSWIRQAPGKGLEWVSYISSSVSTIYYADSVKGRFTISRDNAKNSLYLQMNSLRAEDTAVYYCARDGVIPPRFDYWGQGTLVTVSS
VL: not shown
[1]
  Kd: 6 pM

B2: CV07–270 Fab (Fab, V domains shown)
VH: QVQLVESGGGLVKPGGSLRLSCAASGFTFSDYYMTWIRQAPGKGLEWVSYISSSGSTIYYADSVKGRFTISRDNAKNSLYLQMNSLRAEDTAVYYCARARGSSGWYRIGTRWGNWFDPWGQGTLVTVSS
VL: QSALTQPASVSGSPGQSITISCTGTSSDVGGYNYVSWYQQHPGKAPKLMIYEVSNRPSGVSNRFSGSKSGNTASLTISGLQAEDEADYYCSSYTSSSNVVFGGGTMLTVL
[2]
  binding result: binds

B3: CV38–142 (antibody, V domains shown)
VH: EVQLVQSGAEVKKPGESLKISCQGSGYSFTSYWIGWVRQMPGKGLEWMGIIYPGESDTRYSSSFQGHVTISADKSISTAYLQWSSLKASDTAMYYCARIRGVYSSGWIGGDYWGQGTLVTVSS
VL: not shown
[3]
  binding result: binds
